Patent US20180030149A1 (AVEO PHARMACEUTICALS, published 2018)

B1: Sh24C05-29 (antibody, human IgG1, kappa, V domains shown)
VH: QVQLVESGGGVVQPGRSLRLSCAASGFTFSDYAMSWVRQAPGKGLEWVATISDGGTYTYYPDNVKGRFTISRDNSKNTLYLQMSSLRAEDTAVYYCAREWGDYDGFDYWGQGTLVTVSS
VL: DIQMTQSPSSLSASVGDRVTITCRASQEISGYLSWYQQKPGKAPKRLIYAASTLDSGVPSRFSGSGSGTEFTLTISSLQPEDFATYYCLQYDSYPYTFGQGTKLEIKR
notes: Humanized, human IgG1/kappa
B2: Sh24C05-30 (antibody, human IgG1, kappa)
heavy: not shown
light: DIQMTQSPSSLSASVGDRVTITCRASQEISGYLSWYQQKPGKAPKRLIYAASTLDSGVPSRFSGSGSGTEFTLTISSLQPEDFATYYCLQYDSYPYTFGQGTKLEIKRTVAAPSVFIFPPSDEQLKSGTASVVCLLNNFYPREAKVQWKVDNALQSGNSQESVTEQDSKDSTYSLSSTLTLSKADYEKHKVYACEVTHQGLSSPVTKSFNRGEC
notes: Humanized, human IgG1/kappa
B3: Sh24C05-39 (antibody, human IgG1, kappa, V domains shown)
VH: EVQLVESGGGLVKPGGSLRLSCAASGFTFSDYAMSWVRQAPGKGLEWVSTISDGGTYTYYPDNVKGRFTISRDNAKNSLYLQMNSLRAEDTAVYYCAREWGDYDGFDYWGQGTLVTVSS
VL: DIQLTQSPSFLSASVGDRVTITCRASQEISGYLSWYQQKPGKAPKLLIYAASTLDSGVPSRFSGSGSGTEFTLTISSLQPEDFATYYCLQYDSYPYTFGQGTKLEIKR
notes: Humanized, human IgG1/kappa
B4: Sh24C05-33 (antibody, human IgG1, kappa, V domains shown)
VH: EVQLVESGGGLVKPGGSLRLSCAASGFTFSDYAMSWVRQAPGKGLEWVSTISDGGTYTYYPDNVKGRFTISRDNAKNSLYLQMNSLRAEDTAVYYCAREWGDYDGFDYWGQGTLVTVSS
VL: DIQMTQSPSSLSASVGDRVTITCRASQEISGYLSWYQQKPGKAPKLLIYAASTLDSGVPSRFSGSGSGTDFTFTISSLQPEDIATYYCLQYDSYPYTFGQGTKLEIKR
notes: Humanized, human IgG1/kappa
B5: Sh24C05-34 (antibody, human IgG1, kappa, V domains shown)
VH: EVQLLESGGGLVQPGGSLRLSCAASGFTFSDYAMSWVRQAPGKGLEWVSTISDGGTYTYYPDNVKGRFTISRDNSKNTLYLQMNSLRAEDTAVYYCAREWGDYDGFDYWGQGTLVTVSS
VL: DIQMTQSPSSLSASVGDRVTITCRASQEISGYLSWYQQKPGKAPKLLIYAASTLDSGVPSRFSGSGSGTDFTFTISSLQPEDIATYYCLQYDSYPYTFGQGTKLEIKR
notes: Humanized, human IgG1/kappa
B6: Sh24C05-41 (antibody, human IgG1, kappa, V domains shown)
VH: QVQLVESGGGVVQPGRSLRLSCAASGFTFSDYAMSWVRQAPGKGLEWVATISDGGTYTYYPDNVKGRFTISRDNSKNTLYLQMSSLRAEDTAVYYCAREWGDYDGFDYWGQGTLVTVSS
VL: DIQLTQSPSFLSASVGDRVTITCRASQEISGYLSWYQQKPGKAPKLLIYAASTLDSGVPSRFSGSGSGTEFTLTISSLQPEDFATYYCLQYDSYPYTFGQGTKLEIKR
notes: Humanized, human IgG1/kappa
B7: Sh24C05-42 (antibody, human IgG1, kappa)
heavy: not shown
light: DIQLTQSPSFLSASVGDRVTITCRASQEISGYLSWYQQKPGKAPKLLIYAASTLDSGVPSRFSGSGSGTEFTLTISSLQPEDFATYYCLQYDSYPYTFGQGTKLEIKRTVAAPSVFIFPPSDEQLKSGTASVVCLLNNFYPREAKVQWKVDNALQSGNSQESVTEQDSKDSTYSLSSTLTLSKADYEKHKVYACEVTHQGLSSPVTKSFNRGEC
notes: Humanized, human IgG1/kappa
B8: Sh24C05-38 (antibody, human IgG1, kappa)
heavy: not shown
light: DIQLTQSPSFLSASVGDRVTITCRASQEISGYLSWYQQKPGKAPKLLIYAASTLDSGVPSRFSGSGSGTEFTLTISSLQPEDFATYYCLQYDSYPYTFGQGTKLEIKRTVAAPSVFIFPPSDEQLKSGTASVVCLLNNFYPREAKVQWKVDNALQSGNSQESVTEQDSKDSTYSLSSTLTLSKADYEKHKVYACEVTHQGLSSPVTKSFNRGEC
notes: Humanized, human IgG1/kappa
B9: Sh24C05-37 (antibody, human IgG1, kappa, V domains shown)
VH: QVQLVESGGGLVKPGGSLRLSCAASGFTFSDYAMSWIRQAPGKGLEWVSTISDGGTYTYYPDNVKGRFTISRDNAKNSLYLQMNSLRAEDTAVYYCAREWGDYDGFDYWGQGTLVTVSS
VL: DIQMTQSPSSLSASVGDRVTITCRASQEISGYLSWYQQKPGKAPKLLIYAASTLDSGVPSRFSGSGSGTDFTFTISSLQPEDIATYYCLQYDSYPYTFGQGTKLEIKR
notes: Humanized, human IgG1/kappa
B10: Sh24C05-40 (antibody, human IgG1, kappa, V domains shown)
VH: EVQLLESGGGLVQPGGSLRLSCAASGFTFSDYAMSWVRQAPGKGLEWVSTISDGGTYTYYPDNVKGRFTISRDNSKNTLYLQMNSLRAEDTAVYYCAREWGDYDGFDYWGQGTLVTVSS
VL: DIQLTQSPSFLSASVGDRVTITCRASQEISGYLSWYQQKPGKAPKLLIYAASTLDSGVPSRFSGSGSGTEFTLTISSLQPEDFATYYCLQYDSYPYTFGQGTKLEIKR
notes: Humanized, human IgG1/kappa
B11: Sh24C05-43 (antibody, human IgG1, kappa, V domains shown)
VH: QVQLVESGGGLVKPGGSLRLSCAASGFTFSDYAMSWIRQAPGKGLEWVSTISDGGTYTYYPDNVKGRFTISRDNAKNSLYLQMNSLRAEDTAVYYCAREWGDYDGFDYWGQGTLVTVSS
VL: DIQLTQSPSFLSASVGDRVTITCRASQEISGYLSWYQQKPGKAPKLLIYAASTLDSGVPSRFSGSGSGTEFTLTISSLQPEDFATYYCLQYDSYPYTFGQGTKLEIKR
notes: Humanized, human IgG1/kappa
B12: Sh24C05-35 (antibody, human IgG1, kappa, V domains shown)
VH: QVQLVESGGGVVQPGRSLRLSCAASGFTFSDYAMSWVRQAPGKGLEWVATISDGGTYTYYPDNVKGRFTISRDNSKNTLYLQMSSLRAEDTAVYYCAREWGDYDGFDYWGQGTLVTVSS
VL: DIQMTQSPSSLSASVGDRVTITCRASQEISGYLSWYQQKPGKAPKLLIYAASTLDSGVPSRFSGSGSGTDFTFTISSLQPEDIATYYCLQYDSYPYTFGQGTKLEIKR
notes: Humanized, human IgG1/kappa
B13: Sh24C05-44 (antibody, human IgG1, kappa)
heavy: not shown
light: DIQMTQSPSSLSASVGDRVTITCRASQEISGYLSWYQQKPGKAPKLLIYAASTLDSGVPSRFSGSGSGTDFTLTISSLQPEDFATYYCLQYDSYPYTFGQGTKLEIKRTVAAPSVFIFPPSDEQLKSGTASVVCLLNNFYPREAKVQWKVDNALQSGNSQESVTEQDSKDSTYSLSSTLTLSKADYEKHKVYACEVTHQGLSSPVTKSFNRGEC
notes: Humanized, human IgG1/kappa
B14: Sh24C05-46 (antibody, human IgG1, kappa, V domains shown)
VH: EVQLLESGGGLVQPGGSLRLSCAASGFTFSDYAMSWVRQAPGKGLEWVSTISDGGTYTYYPDNVKGRFTISRDNSKNTLYLQMNSLRAEDTAVYYCAREWGDYDGFDYWGQGTLVTVSS
VL: DIQMTQSPSSLSASVGDRVTITCRASQEISGYLSWYQQKPGKAPKLLIYAASTLDSGVPSRFSGSGSGTDFTLTISSLQPEDFATYYCLQYDSYPYTFGQGTKLEIKR
notes: Humanized, human IgG1/kappa

Biological target: T1, recombinant human ErbB3 monomeric protein (cleaved rhErbB3) (human, UniProt P21860 20-643, limits assumed)
T1 construct: Monomer made by protease cleavage of the Fc fusion; also called Monomeric ErbB3
Experiment: SPR Biacore 37 C; supernatant antibody captured on anti-human Fc, cleaved rhErbB3 injected
Procedure: The analyses were performed at 37° C. using PBS (Invitrogen, Catalog No. 14040-133) containing 0.05% surfactant P20 (Biacore, Catalog No. BR-1000-54) as running buffer.
The antibodies were captured in individual flow cells at a flow rate of […]. Injection time was varied for each antibody to yield an Rₘₐₓ between 30 and 60 RU. […] The dissociation phase was monitored for up to 1200 seconds. The surface was then regenerated with two 60 second injections of Glycine pH 2.25 (made from Glycine pH 2.0 (Biacore, Catalog No. BR-1003-55) and pH 2.5 (Biacore, Catalog No. BR-1003-56)) at […].
Kinetic parameters were determined using the kinetic function of the BIAevaluation software (Biacore) with double reference subtraction. Kinetic parameters for each antibody, kₐ (association rate constant), kd (dissociation rate constant) and KD (equilibrium dissociation constant) were determined.

**Q.** B1 was tested. Which Kd did it give?
**A.** Its Kd is 0.182 nM.

**Q.** What about the koff of the same binder?
**A.** The koff was 0.000588 s⁻¹.

**Q.** And the kon?
**A.** The kon was 3.25e+06 M⁻¹ s⁻¹.

**Q.** Which Kd does the source give for B2 here?
**A.** Its Kd is 0.19 nM.

**Q.** And the koff?
**A.** Its koff is 0.000787 s⁻¹.

**Q.** What about the kon of the same binder?
**A.** The kon was 4.48e+06 M⁻¹ s⁻¹.

**Q.** What does the source list for B3?
**A.** Kd: 0.819 nM; koff: 0.00967 s⁻¹; kon: 1.18e+07 M⁻¹ s⁻¹

**Q.** Which results are given for B4?
**A.** Kd: 1.08 nM; koff: 0.00433 s⁻¹; kon: 4.02e+06 M⁻¹ s⁻¹

**Q.** Which results are given for B5?
**A.** Kd: 0.552 nM; koff: 0.006 s⁻¹; kon: 1.09e+07 M⁻¹ s⁻¹

**Q.** How did the Kd turn out when B6 was run?
**A.** Its Kd is 0.669 nM.

**Q.** What about the koff of the same binder?
**A.** Its koff is 0.0121 s⁻¹.

**Q.** What about the kon of the same binder?
**A.** Its kon is 1.81e+07 M⁻¹ s⁻¹.

**Q.** For B7, which Kd is on record?
**A.** Its Kd is 0.927 nM.

**Q.** What about the koff of the same binder?
**A.** Its koff is 0.00682 s⁻¹.

**Q.** What about the kon of the same binder?
**A.** Its kon is 7.35e+06 M⁻¹ s⁻¹.

**Q.** Which Kd does the source give for B8 here?
**A.** The Kd was 0.567 nM.

**Q.** And the koff?
**A.** Its koff is 0.0154 s⁻¹.

**Q.** What about the kon of the same binder?
**A.** Its kon is 2.71e+07 M⁻¹ s⁻¹.

**Q.** With B9 as the binder, how does the Kd read?
**A.** Its Kd is 0.374 nM.

**Q.** What about the koff of the same binder?
**A.** Its koff is 0.002 s⁻¹.

**Q.** And the kon?
**A.** The kon was 5.94e+06 M⁻¹ s⁻¹.

**Q.** With B10 as the binder, how does the Kd read?
**A.** Its Kd is 0.503 nM.

**Q.** What about the koff of the same binder?
**A.** The koff was 0.0106 s⁻¹.

**Q.** And the kon?
**A.** The kon was 2.11e+07 M⁻¹ s⁻¹.

**Q.** B11 was tested. Which Kd did it give?
**A.** The Kd was 0.582 nM.

**Q.** What about the koff of the same binder?
**A.** Its koff is 0.00358 s⁻¹.

**Q.** What about the kon of the same binder?
**A.** The kon was 6.16e+06 M⁻¹ s⁻¹.

**Q.** B12 was tested. Which Kd did it give?
**A.** Its Kd is 0.655 nM.

**Q.** What about the koff of the same binder?
**A.** Its koff is 0.00553 s⁻¹.

**Q.** What about the kon of the same binder?
**A.** Its kon is 8.44e+06 M⁻¹ s⁻¹.

**Q.** B13 was tested. Which Kd did it give?
**A.** Its Kd is 0.644 nM.

**Q.** And the koff?
**A.** The koff was 0.00512 s⁻¹.

**Q.** What about the kon of the same binder?
**A.** Its kon is 7.96e+06 M⁻¹ s⁻¹.

**Q.** What does the source list for B14?
**A.** Kd: 0.551 nM; koff: 0.0044 s⁻¹; kon: 7.99e+06 M⁻¹ s⁻¹
